Experimental data reported in the nanobody polyreactivity screen of Harvey et al. (2022).

Assay: yeast display, Sf9 membrane polyspecificity reagent, FACS + sequencing; frameworks hold sequencing errors
Method in brief: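 A synthetic nanobody library was expressed on Saccharomyces cerevisiae BJ5465 by galactose induction for 36–48 hours. The library was stained for 1 hour at 4 °C with 10% biotinylated, detergent-solubilized Sf9 membrane reagent and enriched with streptavidin microbeads before FACS. Low and high (top ~1%) gates were set on anti-HA fluorescence for expression and streptavidin fluorescence for reagent binding, and each polyreactivity label reflects the gate of origin.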

| Sequence | polyreactivity (PSR sort gate) |
| --- | --- |
| QVQLVESGGGLVQAGGSLRLSCAASGSTFSVYAMGWYRQAPGKERELVAAITWRGGTTYYADSVKGRFTISRDYAKNTVYLQMNSLKPEDTAVYYCNADWWRTLESDYWGQGTQVTVSS | low polyreactivity |
| QVQLVESGGGLVQAGGSLRLSCAASGSTFSVYAMGWYRQAPGKERELVASISSSVGRTFYADSVKGRFTISRDNAKNTVYLQMNSLKPEDTAVYYCAARSYQVKEYDHWGQGTQVTVSS | high polyreactivity |
| QVQLVESGGGLVQAGGSLRLSCAASGSTFSVYGMGWYRQAPGKERELVAAISGSGSRTYYADSVKGRFTISRDNAKNTVYLQMNSLKPEDTAVYYCAAVRRLLQGRTMYYWGQGTQVTVSS | high polyreactivity |
| QVQLVESGGGLVQAGGSLRLSCAASGSTFSYYAMGWDRQAPWKERELVAAITAGGGSTYYADSVKGRFTISRDNAKNTVYLQMNSLKPEDTAVYYCNADQIFGPALNLWKLDYWGQGTQVTVSS | low polyreactivity |
| QVQLVESGGGLVQAGGSLRLSCAASGSTFSYYAMGWYRQAPGKEREFVAAISSSGGRTYYADSVKGRFTISRDNAKNTVYLQMNSLKPEDTAVYYCNAYYLAEYDYWGQGTQVTVSS | high polyreactivity |
| QVQLVESGGGLVQAGGSLRLSCAASGSTFSYYAMGWYRQAPGKERELVAAIRSDGGSTYYADSVKGRFTISRDNAKNTVYLQMNSLKPEDTAVYYCNAPYRRSAKFRRYGYDYWGQGTQVTVSS | high polyreactivity |
| QVQLVESGGGLVQAGGSLRLSCAASGSTFSYYAMGWYRQAPWKERELVAASTAGGGSTYYADSVKGRFTISRDNAKNTVYLHMNSLKPEDTAVYYCNADQIFGPALNLWKLDYWGQGTQVTVSS | low polyreactivity |
| QVQLVESGGGLVQAGGSLRLSCAASGSTFTANAMGWSRQAPGKERELVAAISRSGGSTYYADSVKWRFTISRDNAKNTVYLQMNSLKPEDTAVYYCAAESPLFSPPDGEDYWGQGTQVTVSS | low polyreactivity |
| QVQLVESGGGLVQAGGSLRLSCAASGSTFTDYAMGWYRQAPGKERELVAAIRFSGGSTYYADSVKGRFTISRDNAKTTVYLQMNSLKPEDTAVYYCAAAGYPWLDSWGQGTQVTVSS | low polyreactivity |
| QVQLVESGGGLVQAGGSLRLSCAASGSTFTENAMGWYRQAPGKERELVATISTSDGSTHYADSVKGRFTISRDNAKNTVYLQMNSLKPEDTAVYYCAARPDYFLWHGYYTRRHYYWGQGTQVTVSS | low polyreactivity |
| QVQLVESGGGLVQAGGSLRLSCAASGSTFTEYAMGWYRQAPGKERELVAAITRSGGGTYYADSVKGRFTISRDNAKNTVYLQINSLKPEDTAVYYCAKDWYRRYIRDYWGQGTQVTVSS | high polyreactivity |
| QVQLVESGGGLVQAGGSLRLSCAASGSTFTFYAMGWYRQAPGKERELVATISSSGGSTYYADSVKGRFTFSRDNAKKTVYLQMNSLKPEDTAVYYCAADPSIVDGEYGYWGQGTQVTVSS | low polyreactivity |
| QVQLVESGGGLVQAGGSLRLSCAASGSTFTGNAMGWYRQAPGKEREFVAAITYSGTRTNYADSVKGRFTISRDNAKNTVYLQMNSLKPEDTAVYYCAARFPWRRRYYYWGQGTQVTVSS | high polyreactivity |
| QVQLVESGGGLVQAGGSLRLSCAASGSTFTGNSMGWYRQAPGKERELVAAISRSGGSTFYADSVKGRFTISRDNAKNTVSLQMNSLKPEDTAVYYCATRYVVDMDYWGQGTQVTVSS | high polyreactivity |
| QVQLVESGGGLVQAGGSLRLSCAASGSTFTGYAMGWYRQAPGKERELVAAITRGGSTYYADSVKGRFTISRDNAKNTVFLQMNSLKPEDTAVYYCAAKPTSREPTGPRYYYWGQGTQVTVSS | high polyreactivity |
| QVQLVESGGGLVQAGGSLRLSCAASGSTFTHNGMGWYRQAPGKETELVASITWSGGSTYYAVSVKGRFTISRDNAKNTVYLQMNSLKPEDNAVYYCASDAKLYITGFDYWGQGTQVTVSS | low polyreactivity |
| QVQLVESGGGLVQAGGSLRLSCAASGSTFTHYALGWYRQAPGKEMELVAAITRRGGSTYYADSVKGRFTISRDYAKNTVYLQMNRLKPEDTAVYYCAARSRYDQEYDYWGQATQVTVSS | high polyreactivity |
| QVQLVESGGGLVQAGGSLRLSCAASGSTFTHYAMGWYRQAPGKERELVAAISSGGSTYYADSVKGRFTISRDNAKNTVYLQMNILKPEDTAVYYCASDYYWHDWWYPHDYWGQGTQVTLSS | low polyreactivity |
| QVQLVESGGGLVQAGGSLRLSCAASGSTFTHYAMGWYRQAPGKERELVAAISWGGGTTRYADSVKGRFTISRDNAKNTVYLQMNSLKPEDTAVYYCAKRVRTGSVGNFNYWGQGTQVTVSS | high polyreactivity |
| QVQLVESGGGLVQAGGSLRLSCAASGSTFTINFMGWYRQAPGKERELVAAINGGGRTNYADSVKGRFTISRDNAKNTVYLQMNSLNPEDTAVYYCAAEWRRYEYSDSWEYDYWGQGTQVTVSS | low polyreactivity |
| QVQLVESGGGLVQAGGSLRLSCAASGSTFTINVMGWYRQAPGKERELVAAINCGGRTNYADSVKGRFTISRDNAKNTVYLQMNSLKPEDTAVYNCAADGRSNVRQMDYWGQGTQVTVSS | low polyreactivity |

| Sequence | polyreactivity (PSR sort gate) |
| --- | --- |
| QVQLVESGGGLVQAGGSLRLSCAASGSTFTKNAMGWYRQAPGKERELVADISFSGGSTYYADSVKGRFTISRDNAKNTVYLQTNRLKPEDTAVYDCAADRHRALPRFDDWGQGTQVTVAS | low polyreactivity |
| QVQLVESGGGLVQAGGSLRLSCAASGSTFTLNTMGWYRQAPGKERELVAGIRSGGSTYYADSVKGRFTISRDNAKNTVYLQMHSLKPEDTAVYYCAADRRWFAYWFDYWGQGTQVTVSS | low polyreactivity |
| QVQLVESGGGLVQAGGSLRLSCAASGSTFTLYAMGWYRQAPGKERELVAAISGIGDSTYYADSVKGRFTISRDNAKNTVYFQMNSLKPEDTAVYYCAADGEYRYVWEYESWGQGTQVTVSS | low polyreactivity |
| QVQLVESGGGLVQAGGSLRLSCAASGSTFTNYALGWYRQAPGKEREFVAAITFRGGRTYYADSVKGRFTISRDNAKNTVYLQMNSLKPEDTAVYYCNKRTSPKRFDYWGQGTQVTVSS | high polyreactivity |
| QVQLVESGGGLVQAGGSLRLSCAASGSTFTNYAMGWYRQAPGKERELVAAITSGGSTYYADSVKGRFTISRDNAKNTVYLQMNSLKPEDTAVYYCNAVYFSEYDSWGQGTQVTVSS | low polyreactivity |
| QVQLVESGGGLVQAGGSLRLSCAASGSTFTPNVMGWNRQAPGKEREYVAAINSSGGSTFYADSVKGRFTISRDTAKYTVYLQMNSLKPEDTAFYYCAASWHTPTFYDEYYYWGQGTQVTVSS | low polyreactivity |
| QVQLVESGGGLVQAGGSLRLSCAASGSTFTPYAMGWYRQAPGKDREFVAVITRSGTRTYYADSVKGRFTISRDNAKNTVYLQMNSLKPEDTAVSYCAADRHPYNRYDYYYWGQGTQVTVSS | high polyreactivity |
| QVQLVESGGGLVQAGGSLRLSCAASGSTFTQNTMGWYRQAPGKERELVAAISWSGTRTYYADSVKGRFTISRDNAKNTVYLQMNSLKPEDTAVYYCAARTHVPAEYDYWGQGTQVTVSS | high polyreactivity |
| QVQLVESGGGLVQAGGSLRLSCAASGSTFTQYAMGWYRQAPAKERELFAAISWGGGTTRYADSVKGRFTISRDNAKNTVYLQMNSLKPEDTAVYYCAKRVRTGSVGNFNYWGQGTQVTVSS | high polyreactivity |
| QVQLVESGGGLVQAGGSLRLSCAASGSTFTRNAMGWYRQAPGKERELVAAISGGGGGSTYYADSVKGRFTISRDNAKNTVYLQMNSLKPEDTAVYYCAARAGRYWAAYGYWGQGTQVTVSS | high polyreactivity |
| QVQLVESGGGLVQAGGSLRLSCAASGSTFTRYAMGWYRQAPGKERELVAAINWSGTSTYYADSVKGRFTISRDNAKNTVYLQMNSLKPEDTAVYYCNKGYLVRPGDYWGQGTQVTVSS | high polyreactivity |
| QVQLVESGGGLVQAGGSLRLSCAASGSTFTSYAMGWYRQAPGKERELVAAISKSGGSTYYADSVKGRFTISRDNAKKTVYFQMNSLKPEDTAVYYCAARYNVRSFSTSSFDYWGQGTQVTVSS | low polyreactivity |
| QVQLVESGGGLVQAGGSLRLSCAASGSTFTSYAMGWYRQAPGKERELVAAITRNGGTTYYADSVKGRFTISRDNAKNTVYLQMNSLKPEDTAVYYCNAPHYYYITSDRRFDYWGQGTQVTVSS | low polyreactivity |
| QVQLVESGGGLVQAGGSLRLSCAASGSTFTSYVMGWYRQAPGKERELVAAISSSGTRTYYADSVKGRFTISRDNAKNTVYLQMNSLKPEDTSVYYCAARGGAPYRIFKDDYWGQATQVTVSS | high polyreactivity |
| QVQLVESGGGLVQAGGSLRLSCAASGSTFTTYAMGWYRQAPGKERELVAAISIRGGRTYYADSVKGRFTISRDNAKNTVYLQMNSLKPEDTAVYYCAAETYYAVSTGYDFDYWGQGTQVTVSS | high polyreactivity |
| QVQLVESGGGLVQAGGSLRLSCAASGSTFTTYAMGWYRQAPGKERELVAAISKSGGSTYYADSVKGRFTISRDNAKNTVYLQMNSLKPEDTAVYYCATSFRSTARKYGYWGQGTQVTVSS | high polyreactivity |
| QVQLVESGGGLVQAGGSLRLSCAASGSTFTTYAMGWYRQAPGKERELVAAITSGGTTNYADSVKGRFTISRDNAKNTVYLQMNSLKPEDTAVYYCAARNNVEYLTIYKPYSFGSDSWGQGTQVTVSS | low polyreactivity |
| QVQLVESGGGLVQAGGSLRLSCAASGSTFTWNAMGWYRQAPGKERELGASISGRGGSTYYADSVKGRFTISRDNAKNTVYLQMNSLKPEDTAVYYCAARGVSYHYPSGYDYWGQGTQVTVSS | high polyreactivity |
| QVQLVESGGGLVQAGGSLRLSCAASGSTFTWYAMGWYRQAPGKERELVAAISGSGGRTFYADSVKGRFTISRDNAKNTVYLQMNSLKPEDTAVYYCNAVRVSIPYIYTMDYWGQGTQVTVSS | high polyreactivity |
| QVQLVESGGGLVQAGGSLRLSCAASGSTFTYNAMGWYRQAPGTERELVAAISDGDGRTYYADSVKGRFTISRDNAKNTVYLQMNSLKPEDTAVYYCAAVDYAADYPYRNTEVYYWGQGTQVTVSS | low polyreactivity |
